The test has as its target T1, Purified human sDR5 (human, UniProt O14763 56-182, limits assumed).
T1 construct: Analyte in the Biacore assay; only called 'purified human sDR5'
Description: SPR (Biacore), MAb captured on immobilised GAH, sDR5 injected at 40 nM to 2.5 nM.

For orientation: Kd means the constant that tells how readily two partners part at equilibrium.

Where a chain is given by its changes, count along the chain named. Numbers in names are those of the source.

B1: Hz033-Mut7 (antibody, human IgG1, kappa)
heavy: EVQLQQSGAEVVKPGASVKLSCKASGFNIKDTFIHWVKQAPGQGLEWIGRIDPANGNTKYDPKFQGKATITTDTSSNTAYMELSSLRSEDTAVYYCVRGLYTYYFDYWGQGTLVTVSSASTKGPSVFPLAPSSKSTSGGTAALGCLVKDYFPEPVTVSWNSGALTSGVHTFPAVLQSSGLYSLSSVVTVPSSSLGTQTYICNVNHKPSNTKVDKKVEPKSCDKTHTCPPCPAPELLGGPSVFLFPPKPKDTLMISRTPEVTCVVVDVSHEDPEVKFNWYVDGVEVHNAKTKPREEQYNSTYRVVSVLTVLHQDWLNGKEYKCKVSNAALPAPIAKTISKAKGQPREPQVYTLPPSRDELTKNQVSLTCLVKGFYPSDIAVEWESNGQPENNYKTTPLVLDSDGSFFLYSKLTVDKSRWQQGNVFSCSVMHEALHNHYTQKSLSLSPGK
light: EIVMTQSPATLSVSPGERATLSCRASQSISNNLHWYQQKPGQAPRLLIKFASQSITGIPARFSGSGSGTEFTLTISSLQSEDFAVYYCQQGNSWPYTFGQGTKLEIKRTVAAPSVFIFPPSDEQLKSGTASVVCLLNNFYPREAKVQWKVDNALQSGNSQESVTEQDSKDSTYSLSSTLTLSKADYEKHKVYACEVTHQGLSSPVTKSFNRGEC
notes: also called Hz033 Mut7 (K326A E333A P396L)
B1 registered a Kd of 0.426 nM.

B2: Hz033-Mut8 (antibody, human IgG1, kappa)
heavy: B1 heavy with Y301L
light: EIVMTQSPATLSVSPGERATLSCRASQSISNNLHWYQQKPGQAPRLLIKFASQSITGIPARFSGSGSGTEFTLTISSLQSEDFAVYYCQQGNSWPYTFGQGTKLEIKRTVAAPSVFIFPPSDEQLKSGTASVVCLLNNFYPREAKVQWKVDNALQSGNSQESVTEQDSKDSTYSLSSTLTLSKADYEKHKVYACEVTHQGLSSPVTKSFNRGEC
notes: also called Hz033 Mut8 (Y300L K326A E333A P396L)
The molecule B2 displayed a Kd of 0.4 nM.

B3: Hz033-Mut11 (antibody, human IgG1, kappa)
heavy: B1 heavy with F244L, R293P, Y301L, V306L
light: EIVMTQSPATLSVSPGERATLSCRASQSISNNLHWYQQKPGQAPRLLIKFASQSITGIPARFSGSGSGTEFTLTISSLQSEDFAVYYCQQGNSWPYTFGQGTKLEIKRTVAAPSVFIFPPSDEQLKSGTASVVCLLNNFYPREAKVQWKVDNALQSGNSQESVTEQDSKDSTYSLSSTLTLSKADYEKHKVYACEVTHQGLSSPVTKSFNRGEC
notes: also called Hz033 Mut11 (F243L R292P Y300L V305L K326A E333A P396L)
Molecule B3 registered a Kd of 0.464 nM.

The values are drawn from EP3048116A1 (International-Drug-Development-Biotech, dated 2016).
